A short description of this data set: yeast display, Sf9 membrane polyspecificity reagent, FACS + sequencing; frameworks hold sequencing errors. In short, it runs like this: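 A nanobody's polyreactivity label depends on the gate it was sorted from. Yeast display cells were stained with 10% biotinylated, detergent-solubilized Sf9 membrane reagent for 1 hour at 4 °C, enriched on streptavidin microbeads and sorted by FACS. The low and high (top ~1%) gates were set on anti-HA fluorescence for expression and streptavidin fluorescence for reagent binding.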
As for “QVQLVESGGGLVQAGGSHRLSCAASARILYRNAMGRYRQAPGKERELVAAITTRGTSTYYADSVKGRFTISRDNANNTVYLQMNSLKPEDTAVYYCNKVTRDLTQGYDYWGQGTQVTVSS”, the “polyreactivity (PSR sort gate)” value is listed as “high polyreactivity”. The entry for “QVQLVESGGGLVQAGGSHRLSCAASGFIFVRNAMGWYRQAPGKERELVAAISSSGGSTNYADSVKGRFTISRDNAKNTVYLQMNSLKPEDTAVYYCNVVTFRYYYKYGYWGQGTQVTVSS” is “high polyreactivity”.

Turning to “QVQLVESGGGLVQAGGSHRLSCAASGFTFVNNALGWYRQPPGKEREFVAPISSDGGSTYYADSVKGRFTMSRDNAKNTVYLQMNSLKPEDTAVYYCAKVYPYRTYDTSYYHYHYDSWGQGTQVTVSS”, the “polyreactivity (PSR sort gate)” value is “low polyreactivity”. Regarding “QVQLVESGGGLVQAGGSHRLSCAASGFTFVTYAMGWYRQAPGKERELVATISWGGGGTYYADSVKGRFTMSRDNAKNTVYFQLNSLKPEDTAVYYCAADNCYHYNFDYWGQGTQVTVSS”, the “polyreactivity (PSR sort gate)” value is given as “low polyreactivity”. Consider “QVQLVESGGGLVQAGGSHRLSCAASGGIFYFNAMGWYRQAPGKERELVASITWSGGNTYYADSVKGRFTISRDNAKNTVYLQMNSLKPEDTAVYYCAADTQEYRPTYDYWGQGTQVTVSS”, for which the “polyreactivity (PSR sort gate)” value was “low polyreactivity”.

Consider “QVQLVESGGGLVQAGGSHRLSCAASGIIFWRYAMGWYRQAPGKERELVAGITSRGGSTYYADSVKGRFTISRDNAKNTVYLQMNSLKPEDTAVYFCNADWFGQLWWGVDYWGQGTQVTVSS”, for which the “polyreactivity (PSR sort gate)” value is “high polyreactivity”.

In the case of “QVQLVESGGGLVQAGGSHRLSCAASGIILYHYAMGWYRQAPGKERELVATITSGGSTNYADSVKGRFTISRDYAKNTVDLQMNSLKPEDTAVYYCAAVPSRYGRYRYYYWGQGTQVTVSS”, the “polyreactivity (PSR sort gate)” value is recorded as “high polyreactivity”.

With “QVQLVESGGGLVQAGGSHRLSCAASGIIYYYNTMGWYRQAPGKEREFVAAISNSGGRTYYADSVKGRFTISRDNAKNTVYLQMNSLKPEDTAVYYCAARYVLFSNRFDYWGQGTQVTVSS”, the “polyreactivity (PSR sort gate)” value is recorded as “high polyreactivity”. On to “QVQLVESGGGLVQAGGSHRLSCAASGITFTGYGMGWYRQAPGKERELVAAIRLRTGSTYFADSVKGRFTISRDNAKNTVYLQMNSLKPEDTAVYYCNKVTVYRFRGVSWGQGTQVTVSS”, for which the “polyreactivity (PSR sort gate)” value is reported as “high polyreactivity”. The entry for “QVQLVESGGGLVQAGGSHRLSCAASGITFYWYAMGWYRQAPGKERELVAAITRSVGSTYYADSVKGRFTISRDNAKNTVYLQMNSLKPEDTAVYYCAADFYYYGFDYWGQGTQVTVSS” is “low polyreactivity”; for “QVQLVESGGGLVQAGGSHRLSCAASGRIFEDYAMGWYRQAPGKERELVARISSGDSTNYADSVNGRFTLSRDNAKNTVYLQMNSLKPEDTAVYYCAAEGGVQEFDYWGQGTQVTVSS” it is “low polyreactivity”. As to “QVQLVESGGGLVQAGGSHRLSCAASGRIFSTYAMGWYRQAPGKERELVAAINKIGGSTYYADSVKGRFTISRDNAKNNVYLQMNSLKPEDTAVDYCAADAPHYPVRRYYYWGQGTQVTVSS”, the “polyreactivity (PSR sort gate)” value is reported as “low polyreactivity”. For “QVQLVESGGGLVQAGGSHRLSCAASGRIFVGYTMGWYRQAPGKERELVAAITSGGSTYYADSVKGRFTISRDNAKNTVYLQMNSLNPEDTAVYYCNAAYQFDSYHLGGYGYEYWGQGTQVTVSS”, the “polyreactivity (PSR sort gate)” value was “low polyreactivity”. The entry for “QVQLVESGGGLVQAGGSHRLSCAASGRIFVKYAMGWYRQAPGKERELVAAITKSGSSTYYADSVKGRFTISRDNAKITVYLQMNSLKPEDTAVYYCAALTISRSRTGYYWGQGTQVTVSS” is “low polyreactivity”. The entry for “QVQLVESGGGLVQAGGSHRLSCAASGRINYNYAMGWYRQAPGKERELVAAISGSGGSTYYADSVKARFTISRDNAKNTVYLQMNSLKPEDTAVYYCSTSGPQYDSRNFDYWGQGTQVNVSS” is “low polyreactivity”.

Regarding “QVQLVESGGGLVQAGGSHRLSCAASGRTFKGNAMGWYRQAPGQERELVAAISSRGGRTFYADSVKGRYTISRDNAKNTVYLQMNSLKPDDTAVYDCAAYSPLTKTPDSPVRYDYWGQGTQVTVSS”, the “polyreactivity (PSR sort gate)” value is given as “high polyreactivity”.
